Paper PMC10541312 (The Journal of Experimental Medicine, 2023)
Substitutions are numbered along the chain they refer to. Names may count otherwise.

Tests used:
Test in all cases: BLI; biotinylated CD123 ECD wt and variants captured on streptavidin biosensors; IL-3 as analyte, 500 to 7.8 nM in PBS pH7.4; association 300 s; steady-state analysis
Conditions in all cases: both partners purified
[1] = target: T1, CD123 E51T ECD (amino acids 19–305), soluble protein (human, UniProt P26951 19-305, E51T, biotinylated (Biotinylation kit Type B) in the IL-3 BLI only)
T1 construct: human CD123 extracellular domain (ECD; amino acids 19–305); source: produced and purified by Icosagen
T1 sequence (looked up): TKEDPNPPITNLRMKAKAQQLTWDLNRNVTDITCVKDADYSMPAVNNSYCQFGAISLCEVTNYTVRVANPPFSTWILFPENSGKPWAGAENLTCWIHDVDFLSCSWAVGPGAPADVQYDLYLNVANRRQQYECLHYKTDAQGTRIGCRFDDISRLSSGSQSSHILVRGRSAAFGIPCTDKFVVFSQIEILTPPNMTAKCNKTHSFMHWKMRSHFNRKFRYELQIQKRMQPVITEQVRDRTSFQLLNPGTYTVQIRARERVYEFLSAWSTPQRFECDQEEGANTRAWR

[2] = target: T2, CD123 E51A ECD (amino acids 19–305), soluble protein (human, UniProt P26951 19-305, E51A, biotinylated (Biotinylation kit Type B) in the IL-3 BLI only)
T2 construct: human CD123 extracellular domain (ECD; amino acids 19–305); source: produced and purified by Icosagen
T2 sequence (looked up): T1 sequence (looked up) with T33A

[3] = target: T3, CD123 S59P ECD (amino acids 19–305), soluble protein (human, UniProt P26951 19-305, S59P, biotinylated (Biotinylation kit Type B) in the IL-3 BLI only)
T3 construct: human CD123 extracellular domain (ECD; amino acids 19–305); source: produced and purified by Icosagen
T3 sequence (looked up): T1 sequence (looked up) with T33E, S41P

[4] = target: T4, CD123 R84E ECD (amino acids 19–305), soluble protein (human, UniProt P26951 19-305, R84E, biotinylated (Biotinylation kit Type B) in the IL-3 BLI only)
T4 construct: human CD123 extracellular domain (ECD; amino acids 19–305); source: produced and purified by Icosagen
T4 sequence (looked up): T1 sequence (looked up) with T33E, R66E

[5] = target: T5, CD123 S59Y ECD (amino acids 19–305), soluble protein (human, UniProt P26951 19-305, S59Y, biotinylated (Biotinylation kit Type B) in the IL-3 BLI only)
T5 construct: human CD123 extracellular domain (ECD; amino acids 19–305); source: produced and purified by Icosagen
T5 sequence (looked up): T1 sequence (looked up) with T33E, S41Y

[6] = target: T6, CD123 R84T ECD (amino acids 19–305), soluble protein (human, UniProt P26951 19-305, R84T, biotinylated (Biotinylation kit Type B) in the IL-3 BLI only)
T6 construct: human CD123 extracellular domain (ECD; amino acids 19–305); source: produced and purified by Icosagen
T6 sequence (looked up): T1 sequence (looked up) with T33E, R66T

[7] = target: T7, CD123 wt ECD (amino acids 19–305), soluble protein (human, UniProt P26951 19-305, biotinylated (Biotinylation kit Type B) in the IL-3 BLI only)
T7 construct: human CD123 extracellular domain (ECD; amino acids 19–305); also called wt CD123; source: produced and purified by Icosagen
T7 sequence (looked up): T1 sequence (looked up) with T33E

[8] = target: T8, CD123 S59R ECD (amino acids 19–305), soluble protein (human, UniProt P26951 19-305, S59R, biotinylated (Biotinylation kit Type B) in the IL-3 BLI only)
T8 construct: human CD123 extracellular domain (ECD; amino acids 19–305); source: produced and purified by Icosagen
T8 sequence (looked up): T1 sequence (looked up) with T33E, S41R

[9] = target: T9, CD123 E51K ECD (amino acids 19–305), soluble protein (human, UniProt P26951 19-305, E51K, biotinylated (Biotinylation kit Type B) in the IL-3 BLI only)
T9 construct: human CD123 extracellular domain (ECD; amino acids 19–305); source: produced and purified by Icosagen
T9 sequence (looked up): T1 sequence (looked up) with T33K

[10] = target: T10, CD123 R84Q ECD (amino acids 19–305), soluble protein (human, UniProt P26951 19-305, R84Q, biotinylated (Biotinylation kit Type B) in the IL-3 BLI only)
T10 construct: human CD123 extracellular domain (ECD; amino acids 19–305); source: produced and purified by Icosagen
T10 sequence (looked up): T1 sequence (looked up) with T33E, R66Q

[11] = target: T11, CD123 S59E ECD (amino acids 19–305), soluble protein (human, UniProt P26951 19-305, S59E, biotinylated (Biotinylation kit Type B) in the IL-3 BLI only)
T11 construct: human CD123 extracellular domain (ECD; amino acids 19–305); source: produced and purified by Icosagen
T11 sequence (looked up): T1 sequence (looked up) with T33E, S41E

[12] = target: T12, CD123 S59F ECD (amino acids 19–305), soluble protein (human, UniProt P26951 19-305, S59F, biotinylated (Biotinylation kit Type B) in the IL-3 BLI only)
T12 construct: human CD123 extracellular domain (ECD; amino acids 19–305); source: produced and purified by Icosagen
T12 sequence (looked up): T1 sequence (looked up) with T33E, S41F

[13] = target: T13, CD123 E51Q ECD (amino acids 19–305), soluble protein (human, UniProt P26951 19-305, E51Q, biotinylated (Biotinylation kit Type B) in the IL-3 BLI only)
T13 construct: human CD123 extracellular domain (ECD; amino acids 19–305); source: produced and purified by Icosagen
T13 sequence (looked up): T1 sequence (looked up) with T33Q

binding result [1]: binds
binding result [2]: binds
binding result [3]: binds
binding result [4]: binds
binding result [5]: binds
binding result [6]: binds
binding result [7]: binds
binding result [8]: binds
binding result [9]: binds
binding result [10]: binds
binding result [11]: binds
binding result [12]: binds
binding result [13]: binds
B1: IL-3 (ligand, human, UniProt P08700 20-152, looked up)
chain: APMTQTTPLKTSWVNCSNMIDEIITHLKQPPLPLLDFNNLNGEDQDILMENNLRRPNLEAFNRAVKSLQNASAIESILKNLLPCLPLATAAPTRHPIHIKDGDWNEFRRKLTFYLKTLENAQAQQTTLSLAIF
notes: human interleukin-3, recombinant, Sino Biological PN 11858-H08H; also called interleukin-3; human IL-3; source: bought: Sino Biological (PN 11858-H08H)
